Measurements as given in the DeepSol protein solubility set.

assay: soluble on expression in E. coli; label from the status in PepcDB or PDB records

Sequence	soluble on expression in E. coli
MKLINTTWTHQELVNNQLDNTDAFLVETYSAGNTDVVFTQAPKHYELLISNKHRAVKDNELEVIREFFLKRKIDKDIVLMDKLRTVHTDKLIEISFPTTV	soluble
MKLIPFPYPLNIGTDVVHLPRILRLINRPDYFHRFTRRILHEQEQRDFRTRFSLPPPSSGAEKTGLNPITPDMARWLAGRFAAKEAARKAAPAGASSLGWKDVIVRVGEADKGRPEIVYLDPMGCGETGGGRVGKLSISHDGDYVVATVLAAG	not soluble
MKLIRGIHNLSQAPQEGCVLTIGNFDGVHRGHRALLQGLQEEGRKRNLPVMVMLFEPQPLELFATDKAPARLTRLREKLRYLAECGVDYVLCVRFDRRFAALTAQNFISDLLVKHLRVKFLAVGDDFRFGAGREGDFLLLQKAGMEYGFDITSTQTFCEGGVRISSTAVRQALADDNLALAESLLGHPFAISGRVVHGDELGRTIGFPTANVPLRRQVSPVKGVYAVEVLGLGEKPLPGVANIGTRPTVAGIRQQLEVHLLDVAMDLYGRHIQVVLRKKIRNEQRFASLDELKAQIARDELTAREFFGLTKPA	soluble
MKLKKLQIEPTTFCTLDCEYCHRKSIPPQDLPLEVLDRVNGVAKEYVIYGYGEPLLYPDFFKRIEGFDGKVVISTNGMLDSDILDLADKVGVSIDVNDKFRKGLEVEKALEVLRKLGERGIAEVVVTKDNLELLPAFFERIAEHGSGMLATNVVASNPAIYEQGVYFECSRITVEKVLGLDESILVEAIKDCSRGGGEALRRYKHLLKEVYSKGYSINLLAIFGRKGRVETAFKAEGVFEMLRDLAGDYGVELIEPSFFGDSKARECPYRDSAFLRVDGKISSCMSFAYTHTEYVDGHYKKVEKFCPGNVLKEDIDDVIGKMAEFERVRADMENFPWCADCPYVEGCWYAETNVDCYANLPSCSECLYSSGIAKCLLGD	not soluble
MKLKSLDFPTGYFYFDNAAINSDKVEVIAVGYRNTDKTIKIFIEDVIHFRVVDESYFIDTFMDLISEDADRALLHENGGQSFFELLDECYAEWILKESYFPLNREFFKYYIFMFEQTFIEIIGSSATYSIIEG	not soluble
MKLLALVALCAVGVASHRDKRQLSIGTISVSGAGGSTGCVVTGNVLYANGIRLRNLTSSEQSELATYQTEVEQYKTQLRNILSQRRENLRNRLMSQGRNQQQQSNDVSSQGGNDDGSIPKAPEKPSFCTAEDTTQYYFDGCMVQGNKVYVGGQYARDLSSDEISELQTFDTQQTAYQNAVQSQMQSQVQGLFGGSDFLSALFGGDRFNQQQQRQQPSSTTPASTSSTTLPPKPTVPQFCTAIF	not soluble
MKLLVATTNEGKYREIKEILSEYGIEVLKPEEKLEVEETGCTFLENAYLKARAYYERYKIPALADDSGLIVEAISPYPGVYSSRFYDIDFGGREEVRTNKDEANIRKLLRLLENTENRKAKFVAFIVVYGGSWGIFAEGEVRGEITKEPRGDRGFGYDPVFVPEGYNKTMAELSPEEKNKISHRGRALRKLVHVLKNCEKAF	soluble
MKLNIKDVVLNYNIIGEGEPIIILHGYSVDHTIMFGCMENLFSDESRYKRIYVDLPGMGKSTSSDSIKTSDNMLDIILEFIMKVTKGENFLLVGESYGGYLSRGVVYKIREKVNGLFLICPAIIPDFNKRTVPEHVILAYDEKLMSKLNKEEAEEFSSMSVVQNEKIYLRFKEEVMSGIKLGNQDFLERLQREGYGFSFDVDKLPQKFDKPTLMLLGKQDASVGYKDAWNILDNYPRATFAVLDMAGHNLQIEQEDIFNLLGKEWISRTYREKDY	not soluble
MKLNIRAQTAQNQHNNSPIVLVHGLFGSLDNLGVLARDLVNDHNIIQVDMRNHGLSPRDPVMNYPAMAQDLVDTLDAQQIDKATFIGHSMGGKAVMALTALASDRIDKLVAIDIAPVDYHVRRHDEIFAAINAVSESDAQTRQQAAAIMRQHLNEEGVIQFLLKSFVDGEWRFNVPVLWDQYPHIVGWEKIPAWDHPALFIPGGNSPYVSEQYRDDLLAQFPQARAHVIAGAGHWVHAEKPDAVLRAIRRYLND	not soluble
MKLSLRQLQIFCAVAQHGSTTSAAISVSLSQSATSAALNELESALDTRLFDRVGKRLVLNDNGHALLPQARRMLENAQQIEASFLPGHAGLKTRLRVGCSTTIGNYVLPLILGELRQSTPHLRVDVDMANSMAIARRVADFEIDMGLIEGPCHLPELSAEPWLIDELLIAAGQRHPLALKQQVTLDDLRTAEWLLREPGSGTREEVEQLLLRHLHDLAETRQIGSSEAIKHTLAQGIGISCLSRWVVRDLLASEVLVELPHALPALTRRFFLIRHRDKYISPGLERFWEKCSQFVSQE	not soluble
MKMKDELINLIINEGCIKFGHFVLTSGKESNYYIDIKSLITNPKALRIIAKLIKEKAEELNLNYDKIAGPELGAVPIATALSLETNKPLLIVRKKKKEHGTGKVIEGNVQKGDKVLLVEDVTTTGGSVIRAAKILREHGADVVGIFVVVDREEGAKENIEKEGFKFYPLVLVSELFKAAGISKDQS	soluble
MKMVTGAVASVLEDEATDTSDSEGSCGSEKDHFYSDDDAIEADSEGDAEPCDKENENDGESSVGTNMGWADAMAKVLNKKTPESKPTILVKNKKLEKEKEKLKQERLEKIKQRDKRLEWEMMCRVKPDVVQDKETERNLQRIATRGVVQLFNAVQKHQKNVDEKVKEAGSSMRKRAKLISTVSKKDFISVLRGMDGSTNETASSRKKPKAKQTEVKSEEGPGWTILRDDFMMGASMKDWDKESDGPDDSRPESASDSDT	not soluble
MKNAVHFGAGNIGRGFIGKLLADAEVEVTFADVDVPLVDQLSHKQEYKVKVVGTECKIDTVTHVTAVNSASEDVIDRIVKTDLVTTAVGPNVLDIIAKTIAKGIAKRFEAGNDAPLNIIACENMVRGTTHLKGEVYKHLDKSLHAKADELVGFVDSAVDRIVPPAEAANDDPLEVTVESFSEWIVDEQQFKGDIPNIAGMEKTNNLMAFVERKLFTLNTGHCITAYLGCLKGHRTIREAIEDPNIHAEVKQAMQESGEVLIRRYGFDHDMHNAYIEKILGRFANPYLVDEVDRVGRQPIRKLGANDRLVKPLLGTIEYGTENQTLLKGIAAALKYTNDTDPQAVELQTSLKEVGVTKTLAKYTGLAEDSDEVAQIETLYNQL	not soluble
MKNDEVLLSIKNLKQYFNAGKKNEVRAIENISFDIYKGETLGLVGESGCGKSTTGKSIIKLNDITSGEILYEGIDIQKIRKRKDLLKFNKKIQMIFQDPYASLNPRLKVMDIVAEGIDIHHLATDKRDRKKRVYDLLETVGLSKEHANRYPHEFSGGQRQRIGIARVLAVEPEFIIADEPISALDVSIQAQVVNLLLKLQRERGITFLFIAHDLSMVKYISDRIAVMHFGKIVEIGPAEEIYQNPLHDYTKSLLSAIPQPDPESERSRKRFSYIDDEANNHLRQLHEIRPNHFVFSTEEEAAQLRENKLVTQN	not soluble
MKNEVKFMSEVIKVVDVKIFPHRYLKAETTEKVLNEIYDLDGIVRVIVHGQPLPKTVPFGPARGLPVNHQDRKVIKVKGEEMELRVKVGEIIITVEGEKLEKIMDGIEEICKRNFPFGYDIYVGAFTKIKPTVTDYMKYGDISSIDPRLIGMVDASARLKDSVKMIKLEHHHHHH	soluble
MKNLIAELLFKLAQKEEESKELCAQVEALEIIVTAMLRNMAQNDQQRLIDQVEGALYEVKPDASIPDDDTELLRDYVKKLLKHPCQ	not soluble
MKNSVDRELPAELMTKLNYQGFESTEIGHPEIQRVAPKVHVSTGDNKVVDSVADVVKATVKDGMTISFHHHFRNGDFVFNQVMRAIIDAGIKDLTLAPSSLTGVMNDMVIEAIKAGTITNITSSGMRGSLGDFVSHGGLKNPVIFRSHGNRARAIEHGDIKIDVAFLGVPNADRLGNANGMAGKAVFGSLGYALMDAQYANQVVLLTDNIVAYPNTPASIKQTQVDYVVQVDQVGDPDKIGSGATRFTKDPKELKIAQTVNNVIVNSPYFKNGFSFQTGSGGAALAVTRYLRQAMLDNQIKASFALGGITKPTTDLLEEGLVDKVMDVQDFDKGAAASMHANPNQQEIDASWYADPDNKGAMVDQLDVAILSALEIDTHFNVNVMSGSDGVIRGAIGGHQDAATAKLTIISAPLVRGRLATIVPEVTTVVTPGDSIDVVVTEYGIAINPRRQDLVKALSHVPGVPVYMIEELQQLAEKKVGQPQPLEFTDRTVALIEYRDGTIIDTIKAVKDLEHHHHHH	not soluble
MKNTFLYFRWEDLHGEIGVDSFNLLRASYSNLSEQQLVELIKELISIEREDIAAKFDIHLSENAPVFDERQHVVYKGVAGDMNYKDMLLSLVTALDLTNTLDHVQNILSLAKCLRSFDREIFARFAKDIAEEVYYSLKLEHHHHHH	soluble
